Results: patent US20220340678A1 (MURAL ONCOLOGY, published 2022)

How the values were obtained:
[1] = target: T1, mouse uPAR on cells (mouse, UniProt P35456 24-298); assay: flow cytometry on MC38 cells (express mouse uPAR), anti-His detection
T1 construct: whole, on cells; also called Ms-uPAR; mouse uPAR (CD87)
T1 sequence (looked up): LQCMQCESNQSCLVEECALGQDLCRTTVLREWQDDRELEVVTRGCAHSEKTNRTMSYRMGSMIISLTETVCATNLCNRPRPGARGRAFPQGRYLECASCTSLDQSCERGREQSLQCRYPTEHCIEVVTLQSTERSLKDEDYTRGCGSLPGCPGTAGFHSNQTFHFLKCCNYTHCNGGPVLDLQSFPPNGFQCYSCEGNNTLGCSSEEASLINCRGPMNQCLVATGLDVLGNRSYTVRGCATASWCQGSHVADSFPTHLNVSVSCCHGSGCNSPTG

[2] = target: T2, Recombinant mouse uPAR-Fc (R&D Systems, Cat. No. 531-PA-100) (mouse, UniProt P35456 24-297, limits assumed); assay: SPR (Biacore), mouse uPAR-Fc captured on anti-human antibody chip
T2 construct: not shown: Fc of the bought fusion (captured with the human antibody capture kit); not described
T2 sequence (looked up): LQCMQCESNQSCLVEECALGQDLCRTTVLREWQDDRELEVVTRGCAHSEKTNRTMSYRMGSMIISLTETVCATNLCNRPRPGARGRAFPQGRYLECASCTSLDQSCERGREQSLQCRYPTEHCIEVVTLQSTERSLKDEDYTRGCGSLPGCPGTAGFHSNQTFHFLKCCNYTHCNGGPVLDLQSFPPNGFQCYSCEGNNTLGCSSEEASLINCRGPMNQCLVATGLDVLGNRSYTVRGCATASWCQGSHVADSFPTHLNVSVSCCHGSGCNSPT

[3] = target: IL-2/IL-15 receptor on primary mouse splenocytes (mouse); assay: cell-based or functional assay
[4] = target: T3, histidine-tagged human uPAR (Sino#10925-H08H) (human, UniProt Q03405 23-303); assay: BLI (Octet), uPAR on sensor, antibody in solution (avidity)
T3 construct: also called uPAR-His

[5] = target: T4, biotinylated human uPAR (human, UniProt Q03405 23-303, limits assumed, biotinylated (site not stated)); assay: BLI (Octet) competition on biotinylated human uPAR; competitor (first antibody): M5
[6] = target: Human uPAR DII-DIII domain HisAvi Tag (human, biotinylated (site not stated)); assay: BLI (Octet), biotinylated domain on SA sensor, antibody 200 nM
[7] = target: T4, biotinylated human uPAR; assay: BLI (Octet) on biotinylated human uPAR; row 'None': no first antibody
[8] = target: T5, human uPAR expressed on HEK293 cells (human, UniProt Q03405 23-305); assay: flow cytometry, HEK293 cells expressing human uPAR, 100 nM uPA present
T5 construct: whole, on cells; also called Hu-uPAR

[9] = target: T3, histidine-tagged human uPAR …; assay: BLI (Octet), antibody on anti-mouse Fc sensor, uPAR in solution
[10] = target: T4, biotinylated human uPAR; assay: BLI (Octet) competition on biotinylated human uPAR; competitor (first antibody): ATN-368 (ATN-658)
[11] = target: T4, biotinylated human uPAR; assay: BLI (Octet) competition on biotinylated human uPAR; competitor (first antibody): M1
[12] = target: T1, mouse uPAR on cells; assay: flow cytometry, HEK293 cells expressing mouse uPAR, 100 nM uPA present
[13] = target: T6, IL-2/IL-15 receptor on HH cells (human); assay: cell-based or functional assay
T6 chain 1: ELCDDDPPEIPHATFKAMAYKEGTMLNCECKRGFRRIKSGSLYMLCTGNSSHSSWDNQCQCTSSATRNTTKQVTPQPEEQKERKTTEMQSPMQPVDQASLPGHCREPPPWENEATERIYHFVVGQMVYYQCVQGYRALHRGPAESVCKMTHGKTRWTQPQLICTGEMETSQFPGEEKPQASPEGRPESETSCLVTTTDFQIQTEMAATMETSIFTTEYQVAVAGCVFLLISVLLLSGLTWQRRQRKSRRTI
T6 chain 2: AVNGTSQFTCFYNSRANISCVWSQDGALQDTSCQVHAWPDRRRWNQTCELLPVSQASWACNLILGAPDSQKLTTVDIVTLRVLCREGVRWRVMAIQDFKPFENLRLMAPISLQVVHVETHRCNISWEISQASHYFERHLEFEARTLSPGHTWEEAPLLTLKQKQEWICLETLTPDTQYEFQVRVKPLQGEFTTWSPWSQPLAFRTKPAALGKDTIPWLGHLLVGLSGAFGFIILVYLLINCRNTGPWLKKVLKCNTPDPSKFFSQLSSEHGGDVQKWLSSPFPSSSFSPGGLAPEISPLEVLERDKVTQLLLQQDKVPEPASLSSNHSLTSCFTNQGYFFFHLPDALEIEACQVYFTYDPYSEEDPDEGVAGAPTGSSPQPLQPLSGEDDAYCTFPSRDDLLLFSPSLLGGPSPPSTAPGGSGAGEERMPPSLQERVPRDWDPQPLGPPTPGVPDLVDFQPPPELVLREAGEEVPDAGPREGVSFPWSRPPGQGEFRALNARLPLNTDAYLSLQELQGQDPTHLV
T6 chain 3: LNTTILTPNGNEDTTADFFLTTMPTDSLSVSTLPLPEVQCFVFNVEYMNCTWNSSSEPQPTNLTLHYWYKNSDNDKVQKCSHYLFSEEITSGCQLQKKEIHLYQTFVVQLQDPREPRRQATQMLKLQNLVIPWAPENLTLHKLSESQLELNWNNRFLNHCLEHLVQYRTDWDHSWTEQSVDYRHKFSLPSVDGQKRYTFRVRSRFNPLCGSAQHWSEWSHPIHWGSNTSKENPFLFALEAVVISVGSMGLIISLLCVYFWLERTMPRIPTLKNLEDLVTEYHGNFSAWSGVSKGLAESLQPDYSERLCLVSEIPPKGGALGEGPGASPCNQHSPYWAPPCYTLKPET

[14] = target: Recombinant human uPAR his (R&D Systems, 807-UK-100/CF) (human, UniProt Q03405 23-303, biotinylated (sites not given)); assay: SPR (Biacore), biotinylated human uPAR his on streptavidin chip

B1: His6:Mouse uPA-ATF:mouse IL-15Ra:cpIL-15 (other)
chain: HHHHHHGSVLGAPDESNCGCQNGGVCVSYKYFSRIRRCSCPRKFQGEHCEIDASKTCYHGNGDSYRGKANTDTKGRPCLAWNAPAVLQKPYNAHRPDAISLGLGKHNYCRNPDNQKRPWCYVQIGLRQFVQECMVHDCGGSGGTTCPPPVSIEHADIRVKNYSVNSRERYVCNSGFKRKAGTSTLIECVINKNTNVAHWTTPSLKCIRDGGSELEEKTFTEFLQSFIRIVQMFINGGGSNWIDVRYDLEKIESLIQSIHIDTTLYTDSDFHPSCKVTAMNCFLLELQVILHEYSNMTLNETVRNVLYLANSTLSSNKNVAESGCKEC
notes: also called 102
For B1, the EC50 [1] was 0.41 nM, the Kd [2] was 0.14 nM and the koff [2] was 0.0002 s⁻¹. The kon [2] was 1.5e+06 M⁻¹ s⁻¹, the “pSTAT5 EC50, mouse NK cells” value [3] was 0.15 nM and the “pSTAT5 EC50, mouse Tregs” value [3] was 1.7 nM. For the same binder, the “pSTAT5 EC50, mouse memory CD8 T cells” value [3] was 0.5 nM.

B2: M43 (antibody, V domains shown)
VH: QVQLQQSGAELARPGASVNLSCKASGYTFTSYGISWVKQRTGQGLEWIGEIYPRSGNTYYNEKFKGKATLTADKSSRTAYMELRSLTSEDSAVYFCAGKDYGSTYADYWGQGTTLTVSS
VL: QIVLTQSPAIMSASPGEKVTMTCSASSSVSSRYLHWYQQKSGASPKLWIYGTSNLASGVPARFSGSGSGTSYSLTINSVEAEDAATYYCQQYHSDPLTFGAGTKLELK
notes: Mouse hybridoma antibody; also called anti-uPAR antibody M43; parental M43
B2 was tested, and the Kd [4] was < 0.001 nM, the koff [4] was < 1e-07 s⁻¹ and the kon [4] was 554000 M⁻¹ s⁻¹. The “response in competition assay” value [5] was 0.0175, the binding result [6] was “binds” and the “response in competition assay” value [7] was 0.295. The EC50 [8] was 0.3 nM, the Kd [9] was 7.47 nM and the koff [9] was 0.00883 s⁻¹. The kon [9] was 1.18e+06 M⁻¹ s⁻¹, the “response in competition assay” value [10] was 0.342 and the “response in competition assay” value [11] was 0.312. The EC50 [12] was 2.83 nM.

B3: Human cpIL-2:IL-2Ra (other)
chain: SKNFHLRPRDLISNINVIVLELKGSETTFMCEYADETATIVEFLNRWITFSQSIISTLTGGSSSTKKTQLQLEHLLLDLQMILNGINNYKNPKLTRMLTFKFYMPKKATELKHLQCLEEELKPLEEVLNLAQGSGGGSELCDDDPPEIPHATFKAMAYKEGTMLNCECKRGFRRIKSGSLYMLCTGNSSHSSWDNQCQCTSSATRNTTKQVTPQPEEQKERKTTEMQSPMQPVDQASLPGHCREPPPWENEATERIYHFVVGQMVYYQCVQGYRALHRGPAESVCKMTHGKTRWTQPQLICTG
With B3 the “pSTAT5 EC50, HH cells” value [13] was 1.1 nM.

B4: His6:Human uPA-ATF:hIL-15Ra:cpIL-15 (other)
chain: HHHHHHSNELHQVPSNCDCLNGGTCVSNKYFSNIHWCNCPKKFGGQHCEIDKSKTCYEGNGHFYRGKASTDTMGRPCLPWNSATVLQQTYHAHRSDALQLGLGKHNYCRNPDNRRRPWCYVQVGLKPLVQECMVHDCAGGSGGITCPPPMSVEHADIWVKSYSLYSRERYICNSGFKRKAGTSSLTECVLNKATNVAHWTTPSLKCIRDGGSELEEKNIKEFLQSFVHIVQMFINGGGSNWVNVISDLKKIEDLIQSMHIDATLYTESDVHPSCKVTAMKCFLLELQVISLESGDASIHDTVENLIILANNSLSSNGNVTESGCKEC
notes: also called 100
For B4, the Kd [14] was 1.1 nM, the koff [14] was 0.00056 s⁻¹ and the kon [14] was 500000 M⁻¹ s⁻¹. For the same binder, the “pSTAT5 EC50, HH cells” value [13] was 0.18 nM.

B5: Human uPA-ATF:Human cpIL-2:IL-2Ra:His6 (other)
chain: SNELHQVPSNCDCLNGGTCVSNKYFSNIHWCNCPKKFGGQHCEIDKSKTCYEGNGHFYRGKASTDTMGRPCLPWNSATVLQQTYHAHRSDALQLGLGKHNYCRNPDNRRRPWCYVQVGLKPLVQECMVHDCAGGSGGSKNFHLRPRDLISNINVIVLELKGSETTFMCEYADETATIVEFLNRWITFSQSIISTLTGGSSSTKKTQLQLEHLLLDLQMILNGINNYKNPKLTRMLTFKFYMPKKATELKHLQCLEEELKPLEEVLNLAQGSGGGSELCDDDPPEIPHATFKAMAYKEGTMLNCECKRGFRRIKSGSLYMLCTGNSSHSSWDNQCQCTSSATRNTTKQVTPQPEEQKERKTTEMQSPMQPVDQASLPGHCREPPPWENEATERIYHFVVGQMVYYQCVQGYRALHRGPAESVCKMTHGKTRWTQPQLICTGHHHHHH
notes: also called 98
Binder B5 has a Kd [14] of 2.2 nM, a koff [14] of 0.001 s⁻¹ and a kon [14] of 460000 M⁻¹ s⁻¹.

B6: Human cpIL-2:IL-2Ra:Human uPA-ATF-His6 (other)
chain: SKNFHLRPRDLISNINVIVLELKGSETTFMCEYADETATIVEFLNRWITFSQSIISTLTGGSSSTKKTQLQLEHLLLDLQMILNGINNYKNPKLTRMLTFKFYMPKKATELKHLQCLEEELKPLEEVLNLAQGSGGGSELCDDDPPEIPHATFKAMAYKEGTMLNCECKRGFRRIKSGSLYMLCTGNSSHSSWDNQCQCTSSATRNTTKQVTPQPEEQKERKTTEMQSPMQPVDQASLPGHCREPPPWENEATERIYHFVVGQMVYYQCVQGYRALHRGPAESVCKMTHGKTRWTQPQLICTGGGSGGSNELHQVPSNCDCLNGGTCVSNKYFSNIHWCNCPKKFGGQHCEIDKSKTCYEGNGHFYRGKASTDTMGRPCLPWNSATVLQQTYHAHRSDALQLGLGKHNYCRNPDNRRRPWCYVQVGLKPLVQECMVHDCAHHHHHH
notes: also called 99
B6 was tested, and the Kd [14] was 0.59 nM, the koff [14] was 0.00049 s⁻¹ and the kon [14] was 830000 M⁻¹ s⁻¹. The “pSTAT5 EC50, HH cells” value [13] was 1.5 nM.

B7: Human IL-15Ra:cpIL-15 (other)
chain: ITCPPPMSVEHADIWVKSYSLYSRERYICNSGFKRKAGTSSLTECVLNKATNVAHWTTPSLKCIRDGGSELEEKNIKEFLQSFVHIVQMFINGGGSNWVNVISDLKKIEDLIQSMHIDATLYTESDVHPSCKVTAMKCFLLELQVISLESGDASIHDTVENLIILANNSLSSNGNVTESGCKEC
For B7, the “pSTAT5 EC50, HH cells” value [13] was 39 pM.
